Patent US20220389118A1 (Chugai, published 2022)
Positions count from the first letter of the chain named. Names may count otherwise.

T1: human FcγRIIb extracellular domain with C-terminal His tag (human, UniProt P31994 43-217)
T1 construct: extracellular domain; not shown: His tag at the C terminus
T1 sequence (looked up): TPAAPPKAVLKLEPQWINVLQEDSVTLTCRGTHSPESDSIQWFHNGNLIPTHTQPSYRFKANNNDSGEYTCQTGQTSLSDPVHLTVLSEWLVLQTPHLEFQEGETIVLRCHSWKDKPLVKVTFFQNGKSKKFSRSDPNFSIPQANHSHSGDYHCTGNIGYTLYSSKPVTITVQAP

T2: human FcγRIIa type R (allotype R131) extracellular domain with C-terminal His tag (human, UniProt P12318 34-217)
T2 construct: extracellular domain; also called FcγRIIaR; FcγRIIa R type; not shown: His tag at the C terminus
T2 sequence (looked up): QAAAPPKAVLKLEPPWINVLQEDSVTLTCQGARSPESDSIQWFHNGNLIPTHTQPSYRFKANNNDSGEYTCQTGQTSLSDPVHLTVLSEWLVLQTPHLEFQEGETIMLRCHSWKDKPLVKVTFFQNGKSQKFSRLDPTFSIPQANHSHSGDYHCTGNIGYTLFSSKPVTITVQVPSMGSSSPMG

T3: human FcγRIIa type R extracellular domain with C-terminal His tag (human, UniProt P12318 34-217)
T3 construct: extracellular domain; also called FcγRIIaR; FcgRIIaR
T3 sequence (looked up): T2 sequence (looked up)

T4: human FcγRIIb extracellular domain with C-terminal His tag (human, UniProt P31994 43-217)
T4 construct: extracellular domain; also called FcgRIIb
T4 sequence (looked up): T1 sequence (looked up)

T5: human FcγRIIa type R extracellular domain with C-terminal His tag (human, UniProt P12318 34-217)
T5 construct: extracellular domain; also called FcγRIIaR; FcγRIIa R
T5 sequence (looked up): T2 sequence (looked up)

B1: IL6R-BP542/IL6R-L (antibody, human IgG1, kappa)
heavy: QVQLQESGPGLVKPSETLSLTCAVSGHSISHDHAWSWVRQPPGEGLEWIGFISYSGITNYNPSLQGRVTISRDNSKNTLYLQMNSLRAEDTAVYYCARSLARTTAMDYWGEGTLVTVSSASTKGPSVFPLAPSSKSTSGGTAALGCLVKDYFPEPVTVSWNSGALTSGVHTFPAVLQSSGLYSLSSVVTVPSSSLGTQTYICNVNHKPSNTKVDKKVEPKSCDKTHTCPPCPAPDLLGDDSVFLFPPKPKDTLMISRTPEVTCVVVDVSDEDGEVKFNWYVDGVEVHNAKTKPREEQFNSTYRVVSVLTVLHQDWLNGKEYKCKVSNKALPRPIEKTISKAKGQPREPQVYTLPPSRDELTKNQVSLTCLVKGFYPSDIAVEWESNGQPENNYKTTPPVLDSDGSFFLYSKLTVDKSRWQQGNVFSCSVMHEALHNHYTQESLSLSP
light: not shown
notes: Y296F introduced into IL6R-BP230 (takes the place of Y296D); copies: 2 + 2
B2: IL6R-BP187/IL6R-L (antibody, human IgG1, kappa)
heavy: B1 heavy with D235E, L236Y, D239G, D270H, F298Y, K328A, R332K
light: not shown
notes: copies: 2 + 2
B3: IL6R-BP203/IL6R-L (antibody, human IgG1, kappa)
heavy: B1 heavy with D235E, D270H, F298Y
light: not shown
notes: copies: 2 + 2
B4: IL6R-BP192/IL6R-L (antibody, human IgG1, kappa)
heavy: B1 heavy with D239G, F298D, R332K
light: not shown
notes: copies: 2 + 2
B5: IL6R-BP189/IL6R-L (antibody, human IgG1, kappa)
heavy: B1 heavy with D235E, F298Y, K328A, R332K
light: not shown
notes: copies: 2 + 2
B6: IL6R-BP191/IL6R-L (antibody, human IgG1, kappa)
heavy: B1 heavy with D239G, F298Y, K328A, R332K
light: not shown
notes: copies: 2 + 2
B7: IL6R-BP103/IL6R-L (antibody, human IgG1, kappa)
heavy: B1 heavy with D235E, D239G, S269V, D270H, G273P, F298Y, R332A
light: not shown
notes: IgG1 type
B8: IL6R-BP126/IL6R-L (antibody, human IgG1, kappa)
heavy: B1 heavy with D235E, D239G, D270H, G273P, F298Y, K328L, R332A
light: not shown
notes: IgG1 type
B9: IL6R-BP118/IL6R-L (antibody, human IgG1, kappa)
heavy: B1 heavy with D235E, D239G, D270H, G273P, F298Y, K328S, R332A
light: not shown
notes: IgG1 type
B10: IL6R-BP911/IL6R-L (antibody, human IgG1, kappa)
heavy: B1 heavy with D235E, D239G, D270H, G273P, F298Y, R332K
light: not shown
notes: IgG1 type
B11: IL6R-BP117/IL6R-L (antibody, human IgG1, kappa)
heavy: B1 heavy with D235E, D239G, D270H, G273P, F298Y, K328D, R332A
light: not shown
notes: IgG1 type
B12: IL6R-BP116/IL6R-L (antibody, human IgG1, kappa)
heavy: B1 heavy with D235E, D239G, D270H, G273P, F298Y, K328T, R332A
light: not shown
notes: IgG1 type
B13: IL6R-BP107/IL6R-L (antibody, human IgG1, kappa)
heavy: B1 heavy with D235E, D239G, D270E, G273P, F298Y, R332A
light: not shown
notes: IgG1 type
B14: IL6R-BP120/IL6R-L (antibody, human IgG1, kappa)
heavy: B1 heavy with D235E, D239G, D270H, G273P, F298Y, K328E, R332A
light: not shown
notes: IgG1 type
B15: Fv4-F1166 (antibody, IgG1)
heavy: QVQLQESGPGLVKPSETLSLTCAVSGHSISHDHAWSWVRQPPGEGLEWIGFISYSGITNYNPSLQGRVTISRDNSKNTLYLQMNSLRAEDTAVYYCARSLARTTAMDYWGEGTLVTVSSASTKGPSVFPLAPSSKSTSGGTAALGCLVKDYFPEPVTVSWNSGALTSGVHTFPAVLQSSGLYSLSSVVTVPSSSLGTQTYICNVNHKPSNTKVDKKVEPKSCDKTHTCPPCPAPELLGGPSVFLFPPKPKDTLYITREPEVTCVVVDVSHEDPEVKFNWYVDGVEVHNAKTKPREEQYNSTYRVVSVLTVLHQDWLNGKEYKCKVSNKALPAPIEKTISKAKGQPREPQVYTLPPSRDELTKNQVSLTCLVKGFYPSDIAVEWESNGQPENNYKTTPPVLDSDGSFFLYSKLTVDKSRWQQGNVFSCSVMHEALHNHYTRKELSLSP
light: DIQMTQSPSSLSASVGDSVTITCQASTDISSHLNWYQQKPGKAPELLIYYGSHLLSGVPSRFSGSGSGTDFTFTISSLEAEDAATYYCGQGNRLPYTFGQGTKVEIERTVAAPSVFIFPPSDEQLKSGTASVVCLLNNFYPREAKVQWKVDNALQSGNSQESVTEQDSKDSTYSLSSTLTLSKADYEKHKVYACEVTHQGLSSPVTKSFNRGEC
notes: copies: 2 + 2
B16: Fv4-F1167 (antibody, human IgG1, kappa)
heavy: B15 heavy with S426N, R440Q, E442S
light: B15 light
notes: copies: 2 + 2
B17: IL6R-PD082/IL6R-L (antibody, human IgG1, kappa)
heavy: B15 heavy with G239F, P240D, T256S, E258T, N436Y, R440Q, E442S
light: not shown
notes: also called P238D/G237F; G237F/P238D; copies: 2 + 2
B18: IL6R-PD094/IL6R-L (antibody, human IgG1, kappa)
heavy: B15 heavy with G239W, P240D, T256S, E258T, N436Y, R440Q, E442S
light: not shown
notes: also called P238D/G237W; G237W/P238D; copies: 2 + 2
B19: IL6R-PD043/IL6R-L (antibody, human IgG1, kappa)
heavy: B15 heavy with L236Y, P240D, T256S, E258T, N436Y, R440Q, E442S
light: not shown
notes: also called P238D/L234Y; L234Y/P238D; copies: 2 + 2
B20: IL6R-PD081/IL6R-L (antibody, human IgG1, kappa)
heavy: B15 heavy with G239E, P240D, T256S, E258T, N436Y, R440Q, E442S
light: not shown
notes: also called P238D/G237E; G237E/P238D; copies: 2 + 2
B21: IL6R-PD095/IL6R-L (antibody, human IgG1, kappa)
heavy: B15 heavy with G239Y, P240D, T256S, E258T, N436Y, R440Q, E442S
light: not shown
notes: also called P238D/G237Y; G237Y/P238D; copies: 2 + 2
B22: IL6R-PD097/IL6R-L (antibody, human IgG1, kappa)
heavy: B15 heavy with P240D, S241D, T256S, E258T, N436Y, R440Q, E442S
light: not shown
notes: also called P238D/S239D; copies: 2 + 2
B23: IL6R-PD086/IL6R-L (antibody, human IgG1, kappa)
heavy: B15 heavy with G239L, P240D, T256S, E258T, N436Y, R440Q, E442S
light: not shown
notes: also called P238D/G237L; G237L/P238D; copies: 2 + 2
B24: Fv4-F1390 (antibody, human IgG1, kappa)
heavy: B15 heavy with Y254M, T256S, E258T, M430L, N436S, Y438H, R440Q, E442S
light: B15 light
notes: Variant of Fv4-LS; copies: 2 + 2
B25: Fv4-F1382 (antibody, human IgG1, kappa)
heavy: B15 heavy with Y254M, T256S, E258T, S428K, M430L, N436S, R440Q, E442S
light: B15 light
notes: as for B24
B26: Fv4-F1386 (antibody, human IgG1, kappa)
heavy: B15 heavy with Y254M, T256S, E258T, S428Y, M430L, N436S, R440Q, E442S
light: B15 light
notes: as for B24
B27: Fv4-F1383 (antibody, human IgG1, kappa)
heavy: B15 heavy with Y254M, T256S, E258T, S428R, M430L, N436S, R440Q, E442S
light: B15 light
notes: as for B24
B28: Fv4-F1381 (antibody, human IgG1, kappa)
heavy: B15 heavy with Y254M, T256S, E258T, S428E, M430L, N436S, R440Q, E442S
light: B15 light
notes: as for B24
B29: Fv4-F1392 (antibody, human IgG1, kappa)
heavy: B15 heavy with Y254M, T256S, E258T, M430L, N436S, Y438K, R440Q, E442S
light: B15 light
notes: as for B24
B30: Fv4-F1389 (antibody, human IgG1, kappa)
heavy: B15 heavy with Y254M, T256S, E258T, M430L, N436S, Y438T, R440Q, E442S
light: B15 light
notes: as for B24
B31: Fv4-F1385 (antibody, human IgG1, kappa)
heavy: B15 heavy with Y254M, T256S, E258T, S428Q, M430L, N436S, R440Q, E442S
light: B15 light
notes: as for B24
B32: Fv4-F1391 (antibody, human IgG1, kappa)
heavy: B15 heavy with Y254M, T256S, E258T, M430L, N436S, Y438N, R440Q, E442S
light: B15 light
notes: as for B24
B33: Fv4-F1380 (antibody, human IgG1, kappa)
heavy: B15 heavy with Y254M, T256S, E258T, S428D, M430L, N436S, R440Q, E442S
light: B15 light
notes: as for B24
B34: Fv4-F1388 (antibody, human IgG1, kappa)
heavy: B15 heavy with Y254M, T256S, E258T, M430L, N436S, Y438F, R440Q, E442S
light: B15 light
notes: as for B24
B35: Fv4-F1384 (antibody, human IgG1, kappa)
heavy: B15 heavy with Y254M, T256S, E258T, S428A, M430L, N436S, R440Q, E442S
light: B15 light
notes: as for B24

molecular target: T1, human FcγRIIb extracellular domain with …; experiment: SPR (Biacore), antibody captured, FcγR analyte

Binder	Kd [nM]
B1	20

molecular target: T6, human FcγRIIIa type V (allotype V158) extracellular domain with C-terminal His tag (human, UniProt P08637 17-208); experiment: SPR (Biacore), antibody captured, FcγR analyte
T6 construct: extracellular domain; also called FcγRIIIaV; FcγRIIIa V type; not shown: His tag at the C terminus
T6 sequence (P08637 17-208 F176V): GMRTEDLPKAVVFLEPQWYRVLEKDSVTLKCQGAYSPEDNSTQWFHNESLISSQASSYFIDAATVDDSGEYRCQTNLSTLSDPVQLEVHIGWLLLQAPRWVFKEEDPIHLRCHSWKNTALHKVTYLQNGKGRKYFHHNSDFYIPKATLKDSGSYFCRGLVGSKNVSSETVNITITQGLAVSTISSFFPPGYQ

Binder	Kd [nM]
B2	56000
B3	72000

molecular target: T7, human FcγRIa extracellular domain with C-terminal His tag (human, UniProt P12314 16-292); experiment: SPR (Biacore), antibody captured, FcγR analyte
T7 construct: not shown: His tag at the C terminus
T7 sequence (P12314 16-292): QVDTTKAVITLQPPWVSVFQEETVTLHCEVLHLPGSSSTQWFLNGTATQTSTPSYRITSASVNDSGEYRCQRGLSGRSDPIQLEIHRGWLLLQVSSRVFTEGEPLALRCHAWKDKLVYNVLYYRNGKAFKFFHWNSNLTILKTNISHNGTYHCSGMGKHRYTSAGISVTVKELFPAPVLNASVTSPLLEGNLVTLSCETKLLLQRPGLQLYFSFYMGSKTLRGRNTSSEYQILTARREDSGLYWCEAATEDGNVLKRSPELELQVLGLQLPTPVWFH

Binder	Kd [nM]
B2	25
B3	180
B4	6.6
B5	42
B6	4

molecular target: T2, human FcγRIIa type R (allotype R131) …; experiment: SPR (Biacore), antibody captured, FcγR analyte

Binder	Kd [nM]
B2	2800
B3	990
B4	2600
B6	3000

molecular target: T3, human FcγRIIa type R extracellular …; experiment: SPR (Biacore), antibody captured, FcγR as analyte

Binder	Kd [nM]
B7	11000
B8	11000
B9	15000
B10	16000
B11	9200
B12	15000
B13	12000
B14	9600

molecular target: T4, human FcγRIIb extracellular domain with …; experiment: SPR (Biacore), antibody captured, FcγR as analyte

Binder	KD(IIb) of parent polypeptide/KD(IIb) of altered polypeptide [fold vs IL6R-B3/IL6R-L]	Kd [nM]
B7	2.5	
B8	2.2	
B9	2.7	
B10	3.5	
B11	3.9	800
B12	2.8	
B13	3.3	
B14	3	1000

molecular target: T8, human FcRn (human, UniProt P55899 24-297; P61769 21-119); experiment: FcRn binding affinity at pH 6.0; method not stated
T8 construct: the construct is not described
T8 sequence (P55899 24-297 limits assumed, chain 1 of 2): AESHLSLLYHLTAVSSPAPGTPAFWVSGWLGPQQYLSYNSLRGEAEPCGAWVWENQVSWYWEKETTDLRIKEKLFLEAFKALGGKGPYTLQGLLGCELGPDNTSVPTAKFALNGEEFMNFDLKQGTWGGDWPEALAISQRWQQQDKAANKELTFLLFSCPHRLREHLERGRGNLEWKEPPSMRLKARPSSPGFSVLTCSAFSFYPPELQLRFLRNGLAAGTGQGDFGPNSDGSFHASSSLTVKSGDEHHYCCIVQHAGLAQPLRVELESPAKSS
T8 sequence (P61769 21-119 limits assumed, chain 2 of 2): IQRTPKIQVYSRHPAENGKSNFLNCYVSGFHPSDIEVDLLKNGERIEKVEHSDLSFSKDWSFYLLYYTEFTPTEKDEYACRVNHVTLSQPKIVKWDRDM

Binder	Kd [nM]
B15	210
B16	250

molecular target: T5, human FcγRIIa type R extracellular …; experiment: SPR, Ref. Ex. 25

Binder	Kd [nM]
B17	14000
B18	7200
B19	26000
B20	38000
B21	7900

molecular target: T9, human FcγRIIIa type V extracellular domain with C-terminal His tag (human, UniProt P08637 17-208); experiment: SPR, Ref. Ex. 25
T9 construct: extracellular domain; also called FcγRIIIaV; FcγRIIIa V type
T9 sequence (P08637 17-208 F176V): as the sequence (P08637 17-208 F176V) above

Binder	Kd [nM]
B17	43000
B18	38000
B19	45000
B20	41000
B22	17000
B23	41000
B21	42000

molecular target: T8, human FcRn; experiment: binding to FcRn at pH 6.0; method not stated

Binder	Kd [nM]
B24	400
B25	130
B26	160
B27	160
B28	86
B29	270
B30	68
B31	77
B32	420
B33	73
B34	80
B35	86
